In one assay the target is T1, 4H349-bN.
T1 chain: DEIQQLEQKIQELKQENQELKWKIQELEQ
Kind of assay: two-hybrid library CCNG1.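 Note: natural log of median RNA to DNA barcode read ratio; higher means stronger binding.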

The target of another assay is T2, 4H949-bN.
T2 chain: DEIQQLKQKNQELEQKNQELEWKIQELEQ
The experiment in a line: two-hybrid library CCNG1.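 Note: natural log of median RNA to DNA barcode read ratio; higher means stronger binding.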

The target of a further assay is T3, 4H3364-bN.
T3 chain: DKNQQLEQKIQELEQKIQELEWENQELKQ
Kind of assay: two-hybrid library CCNG1.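 Note: natural log of median RNA to DNA barcode read ratio; higher means stronger binding.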

The target of another assay is T4, O5-bA.
T4 chain: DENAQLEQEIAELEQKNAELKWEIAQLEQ
The experiment in a line: two-hybrid library CCNG1.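 Note: natural log of median RNA to DNA barcode read ratio; higher means stronger binding.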

A further assay addresses T5, 4H796-bN.
T5 chain: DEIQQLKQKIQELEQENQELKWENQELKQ
Kind of assay: two-hybrid library CCNG1.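 Note: natural log of median RNA to DNA barcode read ratio; higher means stronger binding.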

The next assay addresses T6, 4H730-bN.
T6 chain: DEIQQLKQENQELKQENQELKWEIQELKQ
The experiment in a line: two-hybrid library CCNG1.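 Note: natural log of median RNA to DNA barcode read ratio; higher means stronger binding.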

In the next assay the target is T7, 4H3381-bN.
T7 chain: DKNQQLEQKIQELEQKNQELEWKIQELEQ
The experiment in a line: two-hybrid library CCNG1.

The next assay addresses T8, 4H932-bN.
T8 chain: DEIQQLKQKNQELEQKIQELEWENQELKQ
The experiment in a line: two-hybrid library CCNG1.

For a further assay, the target named is T9, 4H56-bN.
T9 chain: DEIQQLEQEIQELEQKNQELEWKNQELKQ
The experiment in a line: two-hybrid library CCNG1.

The next assay has as its target T10, 4H3782-AA.
T10 chain: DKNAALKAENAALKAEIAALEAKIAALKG
The experiment in a line: two-hybrid library CCmax. Particulars: mean of both orientations.

For a further assay, the target named is T11, 4H_BCR.
T11 chain: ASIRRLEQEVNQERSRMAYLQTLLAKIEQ
The experiment in a line: two-hybrid library CCmax. The note with it: mean of both orientations.

For the next assay, the target named is T12, 4H895-AA.
T12 chain: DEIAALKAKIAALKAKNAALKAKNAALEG
Kind of assay: two-hybrid library CCmax. Particulars: mean of both orientations.

The next assay addresses 4H_GCN4. The experiment in a line: two-hybrid library CCmax.
For another assay, the target named is T13, 4H_APH.
T13 chain: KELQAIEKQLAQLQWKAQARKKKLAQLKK
Kind of assay: two-hybrid library CCmax.

In the next assay the target is T14, 4H3651-AA.
T14 chain: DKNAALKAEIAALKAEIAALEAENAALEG
Kind of assay: two-hybrid library CCmax. Particulars: mean of both orientations.

A further assay concerns the target T15, 4H58-AA.
T15 chain: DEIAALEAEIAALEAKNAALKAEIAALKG
Kind of assay: two-hybrid library CCmax. The note with it: mean of both orientations.

For a further assay, the target named is GCN2_T. The experiment in a line: two-hybrid library CCmax.
The target in another assay is T16, P2-AA-12HAA-R.
T16 chain: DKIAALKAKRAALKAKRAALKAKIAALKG
The experiment in a line: two-hybrid library CCmax.

A further assay concerns the target T17, 4H3705-AA.
T17 chain: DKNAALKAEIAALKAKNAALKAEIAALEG
Kind of assay: two-hybrid library CCmax. The note with it: mean of both orientations.

In a further assay the target is T18, 4H465-AA.
T18 chain: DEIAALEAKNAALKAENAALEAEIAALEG
Kind of assay: two-hybrid library CCmax. The note with it: mean of both orientations.

Another assay concerns the target T19, 4H486-AA.
T19 chain: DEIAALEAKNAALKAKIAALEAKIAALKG
Kind of assay: two-hybrid library CCmax. Particulars: mean of both orientations.

The next assay deals with T20, 4H535-AA.
T20 chain: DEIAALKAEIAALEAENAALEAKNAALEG
The experiment in a line: two-hybrid library CCmax.

In a further assay the target is T21, 4H355-AA.
T21 chain: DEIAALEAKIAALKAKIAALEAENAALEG
Kind of assay: two-hybrid library CCmax.

In the next assay the target is T22, O4-bA.
T22 chain: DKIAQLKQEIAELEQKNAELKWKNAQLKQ
Kind of assay: two-hybrid library CCNG1.

In another assay the target is T23, O7-bA.
T23 chain: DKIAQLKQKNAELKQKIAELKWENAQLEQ
Kind of assay: two-hybrid library CCNG1.

The target of another assay is T24, O9-bA.
T24 chain: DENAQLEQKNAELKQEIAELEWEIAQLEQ
The experiment in a line: two-hybrid library CCNG1.

The target of a further assay is T25, O8-bA.
T25 chain: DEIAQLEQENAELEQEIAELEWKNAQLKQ
The experiment in a line: two-hybrid library CCNG1.

A further assay deals with T26, O6-bA.
T26 chain: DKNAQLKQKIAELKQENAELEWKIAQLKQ
Kind of assay: two-hybrid library CCNG1.

For a further assay, the target named is T27, 4H953-AA.
T27 chain: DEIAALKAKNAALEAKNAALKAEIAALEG
The experiment in a line: two-hybrid library CCmax. Particulars: mean of both orientations.

A further assay has as its target T28, 4H883-AA.
T28 chain: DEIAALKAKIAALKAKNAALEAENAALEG
The experiment in a line: two-hybrid library CCmax. Particulars: mean of both orientations.

The target in a further assay is T29, 4H918-AA.
T29 chain: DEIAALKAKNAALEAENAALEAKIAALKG
The experiment in a line: two-hybrid library CCmax. Particulars: mean of both orientations.

For another assay, the target named is T30, 4H797-AA.
T30 chain: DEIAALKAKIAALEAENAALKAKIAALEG
Kind of assay: two-hybrid library CCmax.

The target of the next assay is T31, 4H687-AA.
T31 chain: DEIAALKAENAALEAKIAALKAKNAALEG
Kind of assay: two-hybrid library CCmax.

The target in the next assay is T32, 4H717-AA.
T32 chain: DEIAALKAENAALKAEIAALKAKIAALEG
Kind of assay: two-hybrid library CCmax. The note with it: mean of both orientations.

The target in a further assay is T33, 4H967-AA.
T33 chain: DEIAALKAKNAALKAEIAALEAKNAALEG
Kind of assay: two-hybrid library CCmax. Particulars: mean of both orientations.

Sequence of 4H_GCN4 (chain, as listed by the source): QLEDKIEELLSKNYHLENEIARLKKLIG

B1: 4H3364-bN (peptide)
chain: DKNQQLEQKIQELEQKIQELEWENQELKQ
Consider B1, for which the interaction score was -0.763 with 4H349-bN; -1.23 with 4H949-bN; 0.858 with 4H3364-bN; -0.987 in the assay with O5-bA; 0.309 with 4H796-bN; 0.217 with 4H730-bN. Besides, the interaction score in the assay with 4H3381-bN is -0.731; with 4H932-bN, -1.67; in the assay with 4H56-bN, -0.197.

B2: 4H355-AA (peptide)
chain: DEIAALEAKIAALKAKIAALEAENAALEG
Consider B2, for which the interaction score in the assay with 4H3782-AA is 0.393; with 4H_BCR it was -1.56; in the assay with 4H895-AA, -0.0681; with 4H_GCN4 it was -1.7; in the assay with 4H_APH, -0.88; in the assay with 4H3651-AA, 0.086. Moreover, the interaction score in the assay with 4H58-AA is 1.08; in the assay with GCN2_T it was -2.04; with P2-AA-12HAA-R, -2.32; in the assay with 4H3705-AA, -1.7; in the assay with 4H465-AA, -1.96; in the assay with 4H486-AA, -0.342. Besides, the results for the interaction score in the assay with 4H535-AA and with 4H355-AA were -0.775 and 0.592, respectively.

B3: O4-bA (peptide)
chain: DKIAQLKQEIAELEQKNAELKWKNAQLKQ
Take B3: the interaction score with O4-bA is 0.158; in the assay with O5-bA, -0.0834; with O7-bA, 0.351; with O9-bA, -0.232; in the assay with O8-bA it was -1.68; in the assay with O6-bA it was 1.17.

B4: 4H687-AA (peptide)
chain: DEIAALKAENAALEAKIAALKAKNAALEG
Turning to B4, the interaction score was -1.39 with 4H953-AA; -1.77 in the assay with 4H883-AA; -0.666 with 4H918-AA; -1.46 with 4H797-AA; -1.1 with 4H687-AA; -0.487 with 4H717-AA. Also, the interaction score with 4H967-AA turned out to be 1.97.

Source of the values: publication PMC10397247.
